Like-named read-outs stand apart in the source and are kept apart here.
Assays:
[1] = target: Pythium ultimum Gat1 (Pythium ultimum); test: AUC
[2] = target: Pythium ultimum Gat1 (Pythium ultimum); test: AUC; remark: listed apart in the source
[3] = target: Toxoplasma gondii Gat1 (Toxoplasma gondii); test: SEC + AUC

stoichiometry N [1]	fold higher dimer affinity than Oc-glycogenin-1 (reported Kd 0.85 µM) [2]	stoichiometry N [2]	Substance	stoichiometry N [3]
2	> 2 fold	2	Pythium ultimum Gat1 (enzyme)	–
–	–	–	Toxoplasma gondii Gat1 (enzyme)	2
